Source: the supplement of paper PMC10567573

B1: CDC14A (parent)
chain: GPHPKSKIENGYPLHAPEAYFPYF
B2: PPFIA4 (parent)
chain: PGVHRRYSALREESAKDWETSPLP

Variants of: B1
Assay: protein stability index of a GFP-peptide fusion (GPS, HEK-293T) (PSI 1-6); higher = more stable
Settings: c terminus: a fixed tail appended
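Also: lentivirally expressed fusions sorted by FACS into six bins by GFP to DsRed ratio, PSI derived from sequencing read proportions per bin multiplied by bin number.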

Row | Variant | protein stability index
1 | Y12G | 2.67
2 | Y12Q | 2.7
3 | Y12E | 3.56
4 | Y12D | 3.24
5 | Y12L | 2.46
6 | Y12N | 3.03
7 | Y12F | 1.78
8 | Y12R | 2.58
9 | Y12C | 2.42
10 | Y12I | 2.82
11 | Y12H | 2.99
12 | Y12M | 2.74
13 | Y12A | 2.99
14 | Y12S | 2.73
15 | Y12K | 2.69
16 | I8F | 2.23
17 | I8Y | 1.88
18 | I8P | 2.56
19 | I8H | 2.37
20 | I8N | 2.98
21 | I8Q | 2.7
22 | I8E | 3.29
23 | I8V | 2.48
24 | I8S | 2.29
25 | I8R | 2.75

Row | Variant | protein stability index
26 | I8C | 2.45
27 | I8G | 2.28
28 | I8A | 2.54
29 | I8K | 2.53
30 | I8W | 1.77
31 | I8M | 2.09
32 | I8L | 2.03
33 | I8D | 3.34
34 | I8T | 2.48
35 | G1H | 2.08
36 | G1R | 1.88
37 | G1C | 2.1
38 | G1T | 2.7
39 | G1Y | 1.51
40 | G1F | 2.01
41 | G1W | 1.73
42 | G1V | 1.89
43 | G1L | 2.05
44 | G1Q | 2.03
45 | G1N | 2.56
46 | G1D | 2.51
47 | G1K | 1.57
48 | G1E | 2.44
49 | G1A | 1.82
50 | G1M | 2.51

Row | Variant | protein stability index
51 | G1I | 1.85
52 | G1S | 1.99
53 | S6R | 2.2
54 | S6A | 2.36
55 | S6Q | 2.22
56 | S6G | 2.14
57 | S6P | 2
58 | S6T | 2.15
59 | S6W | 1.88
60 | S6N | 2.21
61 | S6C | 1.87
62 | S6F | 2.11
63 | S6V | 2.16
64 | S6D | 2.59
65 | S6M | 1.6
66 | S6E | 2.3
67 | S6I | 2.01
68 | S6H | 2.63
69 | S6L | 2.22
70 | S6Y | 1.82
71 | S6K | 2.58
72 | H3D | 2.01
73 | H3A | 2.4
74 | H3Y | 1.9
75 | H3E | 2.46

Row | Variant | protein stability index
76 | H3R | 2.19
77 | H3I | 2.48
78 | H3T | 1.91
79 | H3M | 2.19
80 | H3G | 2.54
81 | H3W | 1.66
82 | H3Q | 2.7
83 | H3S | 2.55
84 | H3L | 2.19
85 | H3N | 2.54
86 | H3K | 2.46
87 | H3F | 2.02
88 | H3V | 2.41
89 | H3C | 2.01
90 | E9W | 1.77
91 | E9P | 1.69
92 | E9T | 2.22
93 | E9A | 1.92
94 | E9C | 2.09
95 | E9I | 2.2
96 | E9Q | 2.02
97 | E9F | 1.77
98 | E9R | 1.6
99 | E9S | 2.21
100 | E9L | 1.76

Row | Variant | protein stability index
101 | E9H | 2.29
102 | E9Y | 1.64
103 | E9N | 1.91
104 | E9V | 1.81
105 | E9G | 2.31
106 | E9D | 1.96
107 | E9M | 1.58
108 | E9K | 1.44
109 | K5N | 2.07
110 | K5S | 2.56
111 | K5F | 1.29
112 | K5W | 1.92
113 | K5R | 2.38
114 | K5A | 2.26
115 | K5M | 1.87
116 | K5Y | 1.66
117 | K5G | 1.99
118 | K5D | 2.08
119 | K5I | 2.06
120 | K5E | 2.5
121 | K5C | 2.23
122 | K5Q | 2.77
123 | K5L | 2.37
124 | K5V | 1.92
125 | K5T | 2.13

Row | Variant | protein stability index
126 | P4D | 2.12
127 | P4S | 1.86
128 | P4E | 2.11
129 | P4C | 2.27
130 | P4W | 2.08
131 | P4T | 2
132 | P4L | 1.51
133 | P4Y | 1.89
134 | P4I | 1.91
135 | P4Q | 2.23
136 | P4R | 2.8
137 | P4N | 2.48
138 | P4K | 2.29
139 | P4F | 2.24
140 | P4G | 2.22
141 | P4M | 2.33
142 | P4A | 2.52
143 | P4H | 2.24
144 | P4V | 2.84
145 | P2A | 2.35
146 | P2H | 2.46
147 | P2Y | 1.85
148 | P2F | 2.8
149 | P2M | 2.13
150 | P2I | 2.28

Row | Variant | protein stability index
151 | P2S | 2.33
152 | P2L | 2.29
153 | P2W | 2.45
154 | P2G | 1.74
155 | P2Q | 2.14
156 | P2C | 1.67
157 | P2N | 2.1
158 | P2T | 2.17
159 | P2R | 2.34
160 | P2V | 2.41
161 | P2K | 1.94
162 | P2D | 2.29
163 | P2E | 2.09
164 | G11Q | 2.31
165 | G11T | 1.75
166 | G11E | 2.52
167 | G11H | 2.17
168 | G11Y | 2.12
169 | G11N | 2.07
170 | G11K | 2.44
171 | G11M | 2.09
172 | G11V | 2.03
173 | G11D | 2.85
174 | G11C | 1.73
175 | G11F | 1.72

Row | Variant | protein stability index
176 | G11L | 2.56
177 | G11I | 1.64
178 | G11R | 2.5
179 | G11P | 3.76
180 | G11W | 1.55
181 | G11S | 2.09
182 | G11A | 2.41
183 | K7T | 2.43
184 | K7M | 1.91
185 | K7L | 2.06
186 | K7H | 2.22
187 | K7Q | 1.96
188 | K7G | 2.84
189 | K7Y | 1.84
190 | K7P | 2.72
191 | K7F | 1.99
192 | K7C | 2.23
193 | K7W | 1.57
194 | K7S | 2.31
195 | K7A | 2.33
196 | K7V | 2.59
197 | K7R | 2.43
198 | K7I | 1.98
199 | K7N | 2.57
200 | K7E | 2.27

Row | Variant | protein stability index
201 | K7D | 2.13
202 | N10F | 2.51
203 | N10Q | 2.99
204 | N10G | 2.18
205 | N10S | 2.97
206 | N10K | 2.65
207 | N10C | 2.05
208 | N10E | 2.29
209 | N10I | 1.63
210 | N10A | 2.51
211 | N10T | 1.82
212 | N10M | 2.31
213 | N10R | 1.55
214 | N10P | 2.52
215 | N10W | 1.89
216 | N10D | 1.96
217 | N10V | 2.06
218 | N10H | 2.57
219 | N10L | 2.19
220 | N10Y | 1.79

Variants of: B2
Assay: as above
Settings: c terminus: a fixed tail appended

Row | Variant | protein stability index
221 | T20Y | 3.46
222 | T20K | 4.17
223 | T20W | 2.3
224 | T20N | 4.55
225 | T20V | 2.73
226 | T20R | 3.66
227 | T20H | 4.47
228 | T20A | 4.05
229 | T20M | 4.37
230 | T20C | 3.75
231 | T20P | 4.6
232 | T20D | 5.09
233 | T20F | 2.71
234 | T20L | 3.36
235 | T20E | 4.62
236 | T20Q | 4.49
237 | T20S | 4.83
238 | T20G | 4.55
239 | S21L | 3.6
240 | S21Q | 4.24
241 | S21H | 3.42
242 | S21N | 5.33
243 | S21F | 3.34

Row | Variant | protein stability index
244 | S21E | 4.5
245 | S21V | 3.76
246 | S21W | 4.24
247 | S21A | 4.93
248 | S21K | 3.98
249 | S21D | 5.1
250 | S21T | 4.07
251 | S21G | 3.25
252 | S21C | 3.88
253 | S21R | 4.03
254 | S21Y | 3.2
255 | S21P | 4.08
256 | S21I | 3.39
257 | S21M | 3.67
258 | P24T | 4.04
259 | P24L | 3.62
260 | P24S | 3.83
261 | P24K | 4.6
262 | P24I | 3.87
263 | P24F | 3.59
264 | P24E | 4.71
265 | P24N | 4.43
266 | P24C | 4.22

Row | Variant | protein stability index
267 | P24V | 4.15
268 | P24Y | 3.45
269 | P24Q | 3.45
270 | P24D | 4.59
271 | P24M | 3.97
272 | P24G | 4.25
273 | P24H | 3.19
274 | P22E | 4.94
275 | P22F | 3.19
276 | P22Q | 4.63
277 | P22C | 4.02
278 | P22T | 3.04
279 | P22D | 4.63
280 | P22R | 3.18
281 | P22L | 3.67
282 | P22K | 4.23
283 | P22S | 4.31
284 | P22H | 4.28
285 | P22N | 4.52
286 | P22A | 4.11
287 | P22I | 3.48
288 | P22V | 3.68
289 | P22Y | 3.3

Row | Variant | protein stability index
290 | L23V | 2.13
291 | L23N | 5
292 | L23A | 4.67
293 | L23H | 4.53
294 | L23F | 4.27
295 | L23Q | 4.37
296 | L23S | 4.56
297 | L23I | 4.26
298 | L23K | 5.38
299 | L23Y | 3.87
300 | L23E | 3.3
301 | L23R | 4.25
302 | L23M | 4.79
303 | L23D | 4.55
304 | W18Y | 4.73
305 | W18G | 5.21
306 | W18P | 5.21
307 | W18M | 5.08
308 | W18V | 4.67
309 | W18K | 4.7
310 | W18I | 4.81
311 | W18T | 5.24
312 | W18R | 4.42

Row | Variant | protein stability index
313 | W18N | 5.29
314 | W18L | 4.96
315 | W18Q | 4.77
316 | W18H | 5.23
317 | E19P | 3.59
318 | E19M | 2.93
319 | E19R | 3.55
320 | E19I | 3.41
321 | E19K | 3.68
322 | E19W | 2.41
323 | E19C | 3
324 | E19A | 2.97
325 | E19N | 3.42
326 | E19T | 3.96
327 | E19S | 3.17
328 | E19Y | 2.37
329 | E19L | 3.97
330 | E19F | 2.4
331 | E19H | 3.41
332 | E19Q | 4.18
333 | E19D | 4.03
334 | E19V | 3.24
